According to patent publication US7341836B2, “Modified cyclic nucleotide gated ion channels” (The Regents of the University of Colorado, priority 2001, dated 2008):
Entries after “also recorded” stand apart in the source; their conditions may differ.

T1: rat olfactory CNG channel α subunit (Rattus norvegicus, UniProt Q00195, C460W/E583M)
T1 construct: expressed in transfected cells; host or cells: HEK-293 (adenovirus infection)
T1 sequence (Q00195 1-664 C460W/E583M): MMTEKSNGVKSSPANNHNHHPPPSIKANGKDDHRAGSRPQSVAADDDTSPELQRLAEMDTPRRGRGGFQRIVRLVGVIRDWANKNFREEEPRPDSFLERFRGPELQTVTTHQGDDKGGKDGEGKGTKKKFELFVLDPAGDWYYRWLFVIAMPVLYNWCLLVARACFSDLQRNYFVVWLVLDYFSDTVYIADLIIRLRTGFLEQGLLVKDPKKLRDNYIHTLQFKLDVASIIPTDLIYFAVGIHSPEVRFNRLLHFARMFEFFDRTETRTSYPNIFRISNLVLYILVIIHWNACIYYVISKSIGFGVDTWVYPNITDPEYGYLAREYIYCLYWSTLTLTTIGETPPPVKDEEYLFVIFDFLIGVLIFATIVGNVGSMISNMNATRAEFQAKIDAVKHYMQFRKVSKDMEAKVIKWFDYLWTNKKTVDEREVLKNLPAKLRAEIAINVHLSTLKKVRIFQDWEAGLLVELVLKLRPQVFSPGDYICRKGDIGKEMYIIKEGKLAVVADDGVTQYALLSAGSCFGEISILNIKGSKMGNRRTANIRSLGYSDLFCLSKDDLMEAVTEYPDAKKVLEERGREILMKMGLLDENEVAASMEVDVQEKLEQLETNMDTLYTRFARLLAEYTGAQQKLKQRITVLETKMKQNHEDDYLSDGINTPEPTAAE


How the values were obtained:
[1] = test system: HEK-293 cells expressing C460W/E583M channels; assay: PGE1-induced cAMP responses in cell populations (Ca2+ influx through C460W/E583M channels); assay type: cell-based, human; settings: 100 nM PGE1
From the text: In this Example, experiments conducted to detect cAMP levels in cells are described. Changes in cyclic AMP concentrations in response to PGE1 stimulation were monitored in HEK-293 cells by measuring Ca^2+ influx through C460W/E583M CNG channels (See, Rich et al. [2001], supra). HEK-293 cells express a variety of extracellular receptors including prostanoid receptors (Thomas and Hoffman, Mol. Pharmacol., 49:907-914 [1996]), and the cAMP-specific PDE type IV (Rich et al. [2001], supra; and Hoffmann et al., EMBO J., 18:893-903 [1999]). Based on PCR analysis, these cells also appear to express AC types II, […], VI, and VII, (Hellevuo et al., Biochem. Biophys. Res. Commun., 192:311-318 [1993]). C460W/E583M channels were expressed heterologously using an adenovirus construct (See, Rich et al. [2001], supra). The Ca^2+ permeability of the channel was used to detect changes in local cAMP concentration; the fluorescent indicator fura-2 was used to monitor Ca^2+ entry. With this approach, incremental changes in cAMP concentration are readily detected as changes in relative Ca^2+ influx rates through C460W/E583M channels (See, Rich et al., [2001], supra).
Transient responses were observed over a large range of PGE1 concentrations, from 0.01 to 10 μM (FIG. 17, Panel A). […] The decline was unlikely to result primarily from a reduction in AC activity (e.g., receptor desensitization), because of the sustained accumulation of total cellular cAMP in the presence of IBMX (See, FIG. 16, Panel B). To verify this, 100 μM IBMX was added at various times after PGE1 application.
To test whether PGE1 did indeed increase the total PDE activity, 100 nM PGE1 were added at various times after the initial application of 100 nM PGE1 (a subsaturating concentration). There was a negligible response to the subsequent addition of PGE1, even after 50 min (FIG. 17, Panel D). Taken together, the results of the experiments shown in FIG. 17, Panels C and D argue that the cAMP transient is due to an initial increase in AC activity, followed by a more profound increase in PDE activity. […] As indicated herein, these processes are crucial for the generation of spatially and temporally distinct cAMP signals.

[2] = test system: HEK-293 cells expressing C460W/E583M channels; assay: Single-cell local cAMP measurement, perforated patch or whole cell currents through C460W/E583M channels; assay type: cell-based, human; settings: 1 μM PGE1
Procedure: Single-cell cAMP measurements were made using either the perforated patch or whole cell patch clamp technique (Rich et al. [2000], supra). In the perforated patch configuration, the pore forming antibiotic nystatin was added to the pipette solution to gain electrical access to the cell's interior while retaining divalent cations and larger molecules like cAMP in the cell. Recordings were made using an Axopatch-200A patch clamp amplifier (Axon Instruments). Pipette resistance was limited to 5 ΩM and averaged 3.4±0.5 ΩM (measurements provided herein are expressed as mean±standard deviation). In the perforated patch configuration, a steady access resistance was obtained 5-15 minutes following seal formation. […] These quantities were monitored throughout the experiments to ensure stable electrical access was maintained. […] The time to exchange the extracellular solution was measured by applying a 140 mM KCl solution to a depolarized cell (+50 mV), and monitoring changes in current through endogenous voltage-gated K^+ channels; for each experiment, it was less than 60 ms. […] In most of these experiments, the pipette solution also contained 1 mM cAMP; at the end of the experiment the maximal cAMP-induced current could be measured by rupturing the cell membrane at the tip of the pipette with suction, allowing saturating cAMP to diffuse to the channels (See, Rich et al. [2000], supra). […]

[3] = test system: rat olfactory CNG channel α subunit; assay: Excised inside-out patch recordings, cyclic nucleotide dose-response of CNG channel constructs; assay type: biochemical; settings: for Imax^cGMP/Imax^cAMP: current at saturating cGMP divided by current at saturating cAMP
Procedure: (§1) As described in greater detail herein, the effects of modifications to CNG channels were assessed using the Hill equation, I/Imax=[cNMP]^N/([cNMP]^N+K1/2^N), where I/Imax is the fraction of maximal current, cNMP represents cyclic nucleotide, K1/2 is the concentration that gives half-maximal current, and N is the Hill coefficient, an index of cooperativity. I/Imax^cGMP/Imax^cAMP is the current induced by saturating cGMP divided by the current induced by saturating cAMP. Data (mean±standard deviation of three experiments) were obtained from excised membrane patches using standard patch clamp techniques.
(§2) To assess the cyclic nucleotide sensitivity of different CNG channel constructs, excised, inside-out patch recordings were made at room temperature (20-21° C.) using an Axopatch-200A patch clamp amplifier (Axon Instruments Inc.). Pipettes were pulled from borosilicate glass and heat polished. Pipettes were lowered onto the cells and gigaohm seals were formed. Patches were excised by shearing cells from the pipette with a jet of liquid. Ionic currents were elicited by 250 ms pulses to membrane potentials of +50 and −50 mV from a holding potential of 0 mV. Current records were sampled at five times the filter setting and stored on an IBM compatible computer. Records were corrected for errors due to series resistance (pipette resistance was 4.1 ±0.1 MΩ). Both the pipette and bath solutions contained (mM): 130 NaCl, 2 HEPES, 0.02 EDTA, and 1 EGTA, pH 7.6. Cyclic nucleotide-induced currents were obtained from the difference between currents in the presence and absence of cyclic nucleotides. Dose response curves for cAMP and cGMP were obtained at +50 and −50 mV in the same patch. The effects of the modifications were assessed using the Hill equation, I/Imax=[cNMP]^N/([cNMP]^N+K1/2^N), where I/Imax is the fraction of maximal current, cNMP represents cyclic nucleotide, K1/2 is the concentration that gives half-maximal current, and N is the Hill coefficient, an index of cooperativity. K1/2 and N for cAMP were 36±5 μM, 10±2 μM, 1.0±0.3 μM, and […] for WT, E583M, C460/E583M, and Δ61-90/C460W/E583M channels, respectively (See, Rich et al., J. Gen. Physiol. [2001], supra).
(§3) The cyclic nucleotide sensitivity of the C460W/E583M CNG channel was assessed in excised, inside-out patches as known in the art (See, Rich et al. [2001], supra). K1/2 and N were 1.1±0.3 μM and 2.1±0.4 at +50 mV; and 1.0±0.3 μM and 2.0 ±0.3 at −50 mV (n=11). With these values, the cAMP concentration could be calculated from currents measured in perforated patch experiments (Rich et al. Proc. Natl. Acad. Sci. [2001], supra).

[4] = test system: HEK-293 cells expressing CNG channels; assay: Forskolin-induced cAMP accumulation monitored by Ca2+ influx (fura-2) through expressed CNG channels; assay type: cell-based, human; settings: 100 μM IBMX; forskolin 0-50 μM
Procedure: Next, experiments were conducted to assess the ability of each channel construct to detect increases in local cAMP concentration. Changes in cAMP concentration were detected using fura-2 to monitor Ca^2+ influx through CNG channels, as described in the Examples. Ca^2+ influx induced by different concentrations of forskolin, an AC activator, in the presence of 100 μM IBMX, a nonselective PDE inhibitor was measured. This approach allowed comparisons to be made between the cAMP sensitivities of the different channels to changes in cAMP, regardless of variations in expression levels between experiments. In HEK-293 cells expressing the WT channel, addition of forskolin was followed by a brief delay and an increase in Ca^2+ influx (See, FIG. 7, Panel A). The delay decreased and the rate of Ca^2+ influx increased in a dose-dependent manner. Neither effect was saturated at 50 μM forskolin. In cells expressing the E583M channel, addition of forskolin was also followed by a brief delay and an increase in Ca^2+ influx (FIG. 7, Panel B). As with the WT channel, the delay and the initial rate of Ca^2+ influx were dose-dependent. […] In cells expressing the Δ61-90/C460W/E583M channel, addition of forskolin caused similar increases in Ca^2+ influx as the E583M channel, including saturation of the delay and rate of influx at 20 μM (compare FIG. 7, Panel B with FIG. 7, Panel D). The increased response of the modified channels to forskolin treatment is consistent with the apparent cAMP affinities measured in excised patches in the absence of Ca^2+-CaM (C460W/E583M>E583M˜Δ61-90/C460W/E583>WT channels). There are several factors that may have contributed to the apparent lack of a Ca^2+-CaM effect on the channels.
Briefly, HEK-293 were maintained in MEM (Life Technologies Inc.) supplemented with 26.2 mM NaHCO3, 10% (v/v) fetal bovine serum (Gemini), penicillin (50 μg/mL), and streptomycin ([…]), pH 7.0, at 37° C. in a humidified atmosphere of 95% air and 5% CO2. Cells were plated at ˜60% confluence in 100 mm culture dishes twenty-four hours prior to infection with the CNG-channel-encoding adenovirus constructs (multiplicity of infection=10 plaque forming units per cell). […] Twenty-four hours post-infection cells were detached with phosphate-buffered saline containing 0.03% EDTA, resuspended in serum-containing medium, and assayed within 12 hours.

[5] = target: T1, rat olfactory CNG channel α subunit; assay: Excised inside-out patch recordings, cyclic nucleotide dose-response of CNG channel constructs; assay type: biochemical; settings: for N: Hill coefficient, n=11, Example 9
Procedure: as §1, §2, §3

Molecule	slopes of the initial PGE1-induced responses [1] [s⁻¹]	average amplitude of the cAMP signal ([2]; five cells) [µM]	width at half height of the cAMP response ([2]; perforated patch, −20 mV, six cells) [s]	effect on CNG channel activity in excised membrane patches ([3]; 100 μM IBMX, 1 μM PGE1)	forskolin concentration at which delay and rate of Ca2+ influx saturated [4] [µM]	lower K1/2 for cAMP than the E583M channel [5] [fold]	N ([5]; +50 mV)	N ([5]; −50 mV)	Imax^cGMP/Imax^cAMP ([3]; +50 mV)	Imax^cGMP/Imax^cAMP ([3]; −50 mV)
CCCCC[C@H](O)/C=C/[C@H]1[C@H](O)CC(=O)[C@@H]1CCCCCCC(=O)O [PGE1, prostaglandin E1]	0.0038 ± 0.0003	0.7 ± 0.4	87 ± 53	no direct effect on channels; also recorded: no change in current was observed						
C460W/E583M: modified rat olfactory cyclic nucleotide-gated ion channel containing the C460W/E583M mutation, SEQ ID NO:6 (protein, listed as Rattus norvegicus) MMTEKSNGVKSSPANNHNHHPPPSIKANGKDDHRAGSRPQSVAADDDTSPELQRLAEMDTPRRGRGGFQRIVRLVGVIRDWANKNFREEEPRPDSFLERFRGPELQTVTTHQGDDKGGKDGEGKGTKKKFELFVLDPAGDWYYRWLFVIAMPVLYNWCLLVARACFSDLQRNYFVVWLVLDYFSDTVYIADLIIRLRTGFLEQGLLVKDPKKLRDNYIHTLQFKLDVASIIPTDLIYFAVGIHSPEVRFNRLLHFARMFEFFDRTETRTSYPNIFRISNLVLYILVIIHWNACIYYVISKSIGFGVDTWVYPNITDPEYGYLAREYIYCLYWSTLTLTTIGETPPPVKDEEYLFVIFDFLIGVLIFATIVGNVGSMISNMNATRAEFQAKIDAVKHYMQFRKVSKDMEAKVIKWFDYLWTNKKTVDEREVLKNLPAKLRAEIAINVHLSTLKKVRIFQDWEAGLLVELVLKLRPQVFSPGDYICRKGDIGKEMYIIKEGKLAVVADDGVTQYALLSAGSCFGEISILNIKGSKMGNRRTANIRSLGYSDLFCLSKDDLMEAVTEYPDAKKVLEERGREILMKMGLLDENEVAASMEVDVQEKLEQLETNMDTLYTRFARLLAEYTGAQQKLKQRITVLETKMKQNHEDDYLSDGINTPEPTAAE					5	~10	2.1±0.4	2.0 ±0.3	0.84 ± 0.10	0.50 ± 0.10
